The values below come from PMC9482650, “Quantitative fragmentomics allow affinity mapping of interactomes” (Nature Communications, 2022).

Some targets named below: GOPC, Q9HD26; LNX1_3, Q8TBB1; GRIP2_4, Q9C0E4; LAP2, Q96RT1; DLG4_3, P78352; SCRIB_3, Q14160; NHERF4_2, Q86UT5; PARD3_3, Q8TEW0; Inadl_6, Q8NI35.
Common to all, as to assay: holdup assay
Holding throughout (parameters): key: below the threshold = too weak to quantify, mostly under pKd 3.1 to 4

For a further assay, the target named is T1, HTRA4, P83105.
T1 sequence (P83105 378-476, limits assumed, looked up): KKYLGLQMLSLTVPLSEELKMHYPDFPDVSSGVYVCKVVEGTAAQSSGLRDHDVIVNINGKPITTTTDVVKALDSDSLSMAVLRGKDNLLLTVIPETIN
The following applies: plain residues with an end cap or a label only (N-terminal biotin on a linker: ttds).

A further assay concerns the target T2, SNTG2, Q9NY99.
T2 sequence (Q9NY99 68-166, limits assumed, looked up): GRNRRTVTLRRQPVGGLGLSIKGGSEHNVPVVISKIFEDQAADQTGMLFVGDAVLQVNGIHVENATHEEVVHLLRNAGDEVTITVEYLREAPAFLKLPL

In a further assay the target is T3, TIAM2, Q8IVF5.
T3 sequence (Q8IVF5 885-986, limits assumed, looked up): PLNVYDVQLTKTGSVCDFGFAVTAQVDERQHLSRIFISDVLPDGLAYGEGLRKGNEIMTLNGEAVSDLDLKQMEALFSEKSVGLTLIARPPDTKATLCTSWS
The conditions noted are these: plain residues with an end cap or a label only (N-terminal biotin on a linker: ttds).

The target in a further assay is MAGI3_2, Q5TCQ9. The conditions noted are these: plain residues with an end cap or a label only (N-terminal biotin on a linker: ttds).
For the next assay, the target named is T4, PTPN13_1, Q12923.
T4 sequence (Q12923 1088-1188, limits assumed, looked up): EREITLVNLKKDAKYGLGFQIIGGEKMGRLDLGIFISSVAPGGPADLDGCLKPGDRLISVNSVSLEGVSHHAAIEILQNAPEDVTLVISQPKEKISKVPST

A further assay deals with Inadl_10, Q8NI35. The following applies: plain residues with an end cap or a label only (N-terminal biotin on a linker: ttds).
The target in a further assay is PDZRN4_1, Q6ZMN7. The conditions noted are these: plain residues with an end cap or a label only (N-terminal biotin on a linker: ttds).
A further assay concerns the target T5, NHERF3_1, Q5T2W1.
T5 sequence (Q5T2W1 4-100, limits assumed, looked up): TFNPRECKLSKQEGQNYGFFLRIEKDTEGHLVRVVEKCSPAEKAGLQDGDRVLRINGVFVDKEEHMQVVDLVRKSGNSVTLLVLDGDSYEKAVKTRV

A further assay concerns the target T6, SHANK1, Q9Y566.
T6 sequence (Q9Y566 658-767, limits assumed, looked up): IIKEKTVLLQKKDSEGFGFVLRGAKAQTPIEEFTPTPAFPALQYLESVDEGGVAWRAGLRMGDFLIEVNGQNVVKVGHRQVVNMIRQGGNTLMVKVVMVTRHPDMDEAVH
The following applies: plain residues with an end cap or a label only (N-terminal biotin on a linker: ttds).

In the next assay the target is T7, APBA3_1, O96018.
T7 sequence (O96018 389-490, limits assumed, looked up): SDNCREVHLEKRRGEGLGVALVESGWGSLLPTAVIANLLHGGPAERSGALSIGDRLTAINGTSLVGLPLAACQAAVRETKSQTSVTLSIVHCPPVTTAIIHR
The conditions noted are these: plain residues with an end cap or a label only (N-terminal biotin on a linker: ttds).

In another assay the target is IL16_3, Q14005. The conditions noted are these: plain residues with an end cap or a label only (N-terminal biotin on a linker: ttds).
In the next assay the target is T8, RAPGEF6, Q8TEU7.
T8 sequence (Q8TEU7 525-625, limits assumed, looked up): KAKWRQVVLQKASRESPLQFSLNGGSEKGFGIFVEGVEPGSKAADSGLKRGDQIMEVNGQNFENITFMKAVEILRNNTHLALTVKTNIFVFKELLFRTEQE

The target of a further assay is T9, ARHGAP21, Q5T5U3.
T9 sequence (Q5T5U3 45-169, limits assumed, looked up): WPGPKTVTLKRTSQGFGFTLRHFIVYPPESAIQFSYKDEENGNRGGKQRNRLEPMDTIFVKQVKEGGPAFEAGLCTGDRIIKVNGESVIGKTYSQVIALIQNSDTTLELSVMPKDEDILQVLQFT

A further assay has as its target T10, DLG3_1, Q92796.
T10 sequence (Q92796 125-227, limits assumed, looked up): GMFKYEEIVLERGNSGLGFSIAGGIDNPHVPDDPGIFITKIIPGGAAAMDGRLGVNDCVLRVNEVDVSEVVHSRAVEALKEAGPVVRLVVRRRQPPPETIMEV

A further assay has as its target T11, TX1BP3, O14907.
T11 sequence (O14907 10-122, limits assumed, looked up): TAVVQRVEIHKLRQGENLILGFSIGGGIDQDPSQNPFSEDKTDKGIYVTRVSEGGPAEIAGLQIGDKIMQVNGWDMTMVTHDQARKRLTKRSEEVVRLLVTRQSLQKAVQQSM

Another assay concerns the target T12, MPP2, Q14168.
T12 sequence (Q14168 180-250, limits assumed, looked up): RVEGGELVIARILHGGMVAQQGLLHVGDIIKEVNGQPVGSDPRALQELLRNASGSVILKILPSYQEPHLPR
The conditions noted are these: plain residues with an end cap or a label only (N-terminal biotin on a linker: ttds).

Where [1] appears, read: plain residues with an end cap or a label only (N-terminal biotin on a linker: ttds).
Where [2] appears, read: plain residues with an end cap or a label only (N-terminal biotin on a linker: ado-ado).

Sequence of SCRIB_3, Q14160 (Q14160 999-1103): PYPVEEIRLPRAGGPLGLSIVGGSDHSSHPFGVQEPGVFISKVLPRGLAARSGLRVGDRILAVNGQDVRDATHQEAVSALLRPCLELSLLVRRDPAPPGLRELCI
Sequence of NHERF4_2, Q86UT5 (Q86UT5 220-308): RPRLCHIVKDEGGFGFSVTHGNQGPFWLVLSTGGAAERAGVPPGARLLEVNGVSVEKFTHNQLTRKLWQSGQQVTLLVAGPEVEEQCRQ
Sequence of Inadl_6, Q8NI35 (Q8NI35 1058-1167): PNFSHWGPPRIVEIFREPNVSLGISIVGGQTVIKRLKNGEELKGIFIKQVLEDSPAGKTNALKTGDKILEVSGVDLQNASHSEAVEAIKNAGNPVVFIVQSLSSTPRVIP
Sequence of PDZRN4_1, Q6ZMN7 (Q6ZMN7 213-318): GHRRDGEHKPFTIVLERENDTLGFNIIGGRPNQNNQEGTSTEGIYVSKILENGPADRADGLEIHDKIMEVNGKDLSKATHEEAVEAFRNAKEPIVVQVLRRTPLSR
Sequence of PARD3_3, Q8TEW0 (Q8TEW0 582-685): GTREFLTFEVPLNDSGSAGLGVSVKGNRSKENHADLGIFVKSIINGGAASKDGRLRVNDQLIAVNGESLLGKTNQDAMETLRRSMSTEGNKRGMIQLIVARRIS
Sequence of MAGI3_2, Q5TCQ9 (Q5TCQ9 398-503): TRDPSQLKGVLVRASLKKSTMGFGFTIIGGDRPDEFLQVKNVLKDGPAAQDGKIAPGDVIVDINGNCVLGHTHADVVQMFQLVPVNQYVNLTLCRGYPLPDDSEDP
Sequence of DLG4_3, P78352 (P78352 306-403): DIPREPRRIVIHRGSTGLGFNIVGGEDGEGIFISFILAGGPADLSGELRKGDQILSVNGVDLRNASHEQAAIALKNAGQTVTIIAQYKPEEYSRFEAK
Sequence of GRIP2_4, Q9C0E4 (Q9C0E4 446-548): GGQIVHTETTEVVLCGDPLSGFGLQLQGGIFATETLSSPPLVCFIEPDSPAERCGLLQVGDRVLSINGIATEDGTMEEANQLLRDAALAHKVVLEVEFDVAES
Sequence of IL16_3, Q14005 (Q14005 1107-1207): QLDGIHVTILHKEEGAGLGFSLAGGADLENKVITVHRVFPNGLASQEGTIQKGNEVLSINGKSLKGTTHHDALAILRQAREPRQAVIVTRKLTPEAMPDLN
Sequence of LNX1_3, Q8TBB1 (Q8TBB1 500-596): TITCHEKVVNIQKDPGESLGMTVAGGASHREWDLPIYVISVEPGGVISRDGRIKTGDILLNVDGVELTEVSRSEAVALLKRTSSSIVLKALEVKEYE
Sequence of LAP2, Q96RT1 (Q96RT1 other isoform, or with tags, fused parts or gaps): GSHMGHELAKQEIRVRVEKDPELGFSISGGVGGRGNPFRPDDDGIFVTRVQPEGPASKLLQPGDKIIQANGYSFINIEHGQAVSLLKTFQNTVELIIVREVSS
Sequence of Inadl_10, Q8NI35 (Q8NI35 1673-1763): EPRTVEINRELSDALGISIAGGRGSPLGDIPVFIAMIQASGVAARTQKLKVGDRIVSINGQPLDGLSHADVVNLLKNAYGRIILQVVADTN

B1: HPV67-E6, A4U7F2 (peptide)
chain: SRPQRTQTQV
On to B1, for which the pKd in the assay with GOPC, Q9HD26 (setting [1]) was 3.58; in the assay with HTRA4, P83105, “below the threshold”; with SNTG2, Q9NY99 (setting [1]), 3.98; with TIAM2, Q8IVF5, “below the threshold”; in the assay with MAGI3_2, Q5TCQ9 it was 5.42; with PTPN13_1, Q12923 (setting [1]), “below the threshold”. For the same molecule, the pKd result with Inadl_10, Q8NI35 was “below the threshold”; with LNX1_3, Q8TBB1 (setting [1]) it was “below the threshold”; in the assay with GRIP2_4, Q9C0E4 (setting [1]) it was “below the threshold”; in the assay with LAP2, Q96RT1 (setting [1]), “below the threshold”; with DLG4_3, P78352 (setting [1]) it was 4.23; in the assay with PDZRN4_1, Q6ZMN7, 3.82. Besides, the negative logarithm of the Kd (pKd) in the assay with NHERF3_1, Q5T2W1 (setting [1]) is 3.98; with SHANK1, Q9Y566 it was “below the threshold”; with APBA3_1, O96018 it was “below the threshold”; with SCRIB_3, Q14160 (setting [1]) it was 3.93; in the assay with IL16_3, Q14005 it was “below the threshold”; with RAPGEF6, Q8TEU7 (setting [1]) it was “below the threshold”. Further, the pKd entry is “below the threshold” with ARHGAP21, Q5T5U3 (setting [1]); “below the threshold” in the assay with NHERF4_2, Q86UT5 (setting [1]); “below the threshold” with PARD3_3, Q8TEW0 (setting [1]); 3.89 with DLG3_1, Q92796 (setting [1]); “below the threshold” in the assay with Inadl_6, Q8NI35 (setting [1]); 4.03 with TX1BP3, O14907 (setting [1]). Also, in the assay with MPP2, Q14168, the pKd result is given as “below the threshold”.

B2: GRASP, Q7Z6J2 (peptide)
chain: RSLEEEESQL
For the molecule B2, the negative logarithm of the Kd (pKd) with GOPC, Q9HD26 (setting [1]) was 4.01; with HTRA4, P83105, “below the threshold”; with SNTG2, Q9NY99 (setting [1]), “below the threshold”; in the assay with TIAM2, Q8IVF5, “below the threshold”; with MAGI3_2, Q5TCQ9, 3.81; with PTPN13_1, Q12923 (setting [1]), 3.63. Also, the pKd entry was “below the threshold” with Inadl_10, Q8NI35; “below the threshold” with LNX1_3, Q8TBB1 (setting [1]); 3.75 in the assay with GRIP2_4, Q9C0E4 (setting [1]); 3.69 with LAP2, Q96RT1 (setting [1]); 3.75 in the assay with DLG4_3, P78352 (setting [1]); 4.17 with PDZRN4_1, Q6ZMN7. The negative-log Kd (pKd) in the assay with NHERF3_1, Q5T2W1 (setting [1]) is 5.27; in the assay with SHANK1, Q9Y566 it was 5.1; with APBA3_1, O96018 it was “below the threshold”; with SCRIB_3, Q14160 (setting [1]), 4.23; with IL16_3, Q14005 it was “below the threshold”; with RAPGEF6, Q8TEU7 (setting [1]), 3.56. Further, the pKd with ARHGAP21, Q5T5U3 (setting [1]) was 3.83; with NHERF4_2, Q86UT5 (setting [1]) it was “below the threshold”; with PARD3_3, Q8TEW0 (setting [1]) it was 4.13; with DLG3_1, Q92796 (setting [1]), 3.6; in the assay with Inadl_6, Q8NI35 (setting [1]), 4.05; in the assay with TX1BP3, O14907 (setting [1]) it was 3.84. The negative logarithm of the Kd (pKd) entry with MPP2, Q14168 was “below the threshold”.

B3: CYSLTR2, Q9NS75 (peptide)
chain: SVWLRKETRV
Consider B3, for which the negative logarithm of the Kd (pKd) was 4.27 with GOPC, Q9HD26 (setting [1]); 3.38 with HTRA4, P83105; 5.09 with SNTG2, Q9NY99 (setting [1]); “below the threshold” with TIAM2, Q8IVF5; 5.75 in the assay with MAGI3_2, Q5TCQ9; 3.43 with PTPN13_1, Q12923 (setting [1]). Besides, the pKd result with Inadl_10, Q8NI35 is “below the threshold”; with LNX1_3, Q8TBB1 (setting [1]) it was 3.46; with GRIP2_4, Q9C0E4 (setting [1]), “below the threshold”; with LAP2, Q96RT1 (setting [1]) it was 4.15; with DLG4_3, P78352 (setting [1]), 6.55; with PDZRN4_1, Q6ZMN7 it was 4.76. The pKd in the assay with NHERF3_1, Q5T2W1 (setting [1]) was 4.8; in the assay with SHANK1, Q9Y566, 3.51; with APBA3_1, O96018, “below the threshold”; with SCRIB_3, Q14160 (setting [1]), 4.85; with IL16_3, Q14005, “below the threshold”; with RAPGEF6, Q8TEU7 (setting [1]), 3.44. Moreover, the negative logarithm of the Kd (pKd) result is “below the threshold” in the assay with ARHGAP21, Q5T5U3 (setting [1]); “below the threshold” with NHERF4_2, Q86UT5 (setting [1]); 3.46 in the assay with PARD3_3, Q8TEW0 (setting [1]); 4.41 with DLG3_1, Q92796 (setting [1]); “below the threshold” with Inadl_6, Q8NI35 (setting [1]); 4.75 in the assay with TX1BP3, O14907 (setting [1]). Further, in the assay with MPP2, Q14168, the negative logarithm of the Kd (pKd) entry was “below the threshold”.

B4: HPV16-E6, P03126 (peptide)
chain: SSRTRRETQL
As for B4, the pKd result is “below the threshold” with HTRA4, P83105; 4.45 in the assay with SNTG2, Q9NY99 (setting [1]); “below the threshold” with TIAM2, Q8IVF5; 5.31 with MAGI3_2, Q5TCQ9; 3.56 in the assay with PTPN13_1, Q12923 (setting [1]); “below the threshold” with Inadl_10, Q8NI35. For the same molecule, the pKd was 3.51 with LNX1_3, Q8TBB1 (setting [1]); “below the threshold” with GRIP2_4, Q9C0E4 (setting [1]); “below the threshold” in the assay with LAP2, Q96RT1 (setting [1]); 5.06 in the assay with DLG4_3, P78352 (setting [1]); 5.25 with PDZRN4_1, Q6ZMN7; 5.62 in the assay with NHERF3_1, Q5T2W1 (setting [1]). Besides, the negative-log Kd (pKd) with SHANK1, Q9Y566 is 3.68; with APBA3_1, O96018, “below the threshold”; in the assay with SCRIB_3, Q14160 (setting [1]) it was 5.29; with IL16_3, Q14005, “below the threshold”; with RAPGEF6, Q8TEU7 (setting [1]) it was 3.66; in the assay with ARHGAP21, Q5T5U3 (setting [1]) it was “below the threshold”. In addition, the pKd result was “below the threshold” with NHERF4_2, Q86UT5 (setting [1]); 3.65 with PARD3_3, Q8TEW0 (setting [1]); 3.96 in the assay with DLG3_1, Q92796 (setting [1]); 3.49 with Inadl_6, Q8NI35 (setting [1]); 4.87 with TX1BP3, O14907 (setting [1]); “below the threshold” with MPP2, Q14168.

B5: MUC3B, MUC3A, Q02505;Q9H195 (peptide)
chain: KRPEMTSSSV
Take B5: the pKd with GOPC, Q9HD26 (setting [2]) was 3.96; with SNTG2, Q9NY99 (setting [2]) it was 3.9; with PTPN13_1, Q12923 (setting [2]), “below the threshold”; with LAP2, Q96RT1 (setting [2]) it was 1.89; with NHERF3_1, Q5T2W1 (setting [2]), 3.85; with RAPGEF6, Q8TEU7 (setting [2]) it was “below the threshold”. The pKd was 1.86 in the assay with ARHGAP21, Q5T5U3 (setting [2]); “below the threshold” with DLG3_1, Q92796 (setting [2]); 4.5 in the assay with TX1BP3, O14907 (setting [2]).

B6: NF2, P35240 (peptide)
chain: KSRVAFFEEL
On to B6, for which the pKd with GOPC, Q9HD26 (setting [2]) is 3.63; with SNTG2, Q9NY99 (setting [2]) it was 3.74; with LNX1_3, Q8TBB1 (setting [2]), 3.61; in the assay with GRIP2_4, Q9C0E4 (setting [2]), 3.73; with DLG4_3, P78352 (setting [2]) it was 3.52; with SCRIB_3, Q14160 (setting [2]), 3.7. In addition, the pKd was found to be 3.66 with NHERF4_2, Q86UT5 (setting [2]); 3.72 with PARD3_3, Q8TEW0 (setting [2]); 3.58 with DLG3_1, Q92796 (setting [2]); 3.47 in the assay with Inadl_6, Q8NI35 (setting [2]).

For orientation: pKd means the negative decadic logarithm of the Kd, by convention in mol/L.
